This note sets out measurements from patent CN101001872A (MACROGENICS INC, dated 2007).

The target in assay [1] is T1, 细胞表面的人FcγRIIB (CD32B) (human, UniProt P31994 43-310).
T1 construct: whole, on cells; also called huFcγRIIB; CHO/IIB
T1 sequence (looked up): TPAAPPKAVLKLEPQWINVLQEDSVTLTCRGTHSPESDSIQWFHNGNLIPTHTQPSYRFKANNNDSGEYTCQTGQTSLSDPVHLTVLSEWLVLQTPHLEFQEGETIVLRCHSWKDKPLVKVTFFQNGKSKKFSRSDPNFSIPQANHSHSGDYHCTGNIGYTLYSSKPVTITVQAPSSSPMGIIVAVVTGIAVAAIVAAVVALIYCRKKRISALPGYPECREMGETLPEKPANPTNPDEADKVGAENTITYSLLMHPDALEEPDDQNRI
The assay is described as follows: two-colour FACS on CHO cells with full-length FcγRIIB, after mouse IgG1 isotype control.

Assay [2] deals with T1, 细胞表面的人FcγRIIB (CD32B). Kind of assay: cell-based or functional assay.
A further assay concerns the target T2, 可溶性单体形式的人CD32A-R131 (human, UniProt P12318 34-217).
T2 construct: extracellular domain
T2 sequence (looked up): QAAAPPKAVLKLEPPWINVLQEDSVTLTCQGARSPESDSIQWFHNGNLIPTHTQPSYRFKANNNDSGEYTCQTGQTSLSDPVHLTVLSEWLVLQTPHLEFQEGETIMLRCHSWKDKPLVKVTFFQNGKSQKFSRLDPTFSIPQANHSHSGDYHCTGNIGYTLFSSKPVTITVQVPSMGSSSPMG
Kind of assay: SPR (BIAcore 3000), antibody captured by goat anti-mouse F(ab′)2, soluble monomeric receptor injected.

In assay [3] the target is T3, 可溶性单体形式的人CD32B (293H细胞中表达的可溶性细胞外结构域) (human, UniProt P31994 43-217).
T3 construct: extracellular domain; also called FcγRIIB
T3 sequence (looked up): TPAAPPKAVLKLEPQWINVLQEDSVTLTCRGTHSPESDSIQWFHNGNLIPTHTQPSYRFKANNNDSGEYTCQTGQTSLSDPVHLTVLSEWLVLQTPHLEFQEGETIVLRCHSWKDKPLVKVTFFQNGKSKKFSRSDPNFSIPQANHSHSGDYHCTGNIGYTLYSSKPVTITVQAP
Kind of assay: SPR (BIAcore 3000), captured antibody, soluble monomeric receptor injected.

In assay [4] the target is FcγRIIB (ELISA包被, 哺乳动物系统产生) (human) (UniProt P31994). The assay is described as follows: direct ELISA, receptor-coated plate.
For assay [5], the target named is T1, 细胞表面的人FcγRIIB (CD32B). The assay is described as follows: two-colour FACS on CHO cells with full-length FcγRIIB.
A further assay deals with T4, 人外周血白细胞上的huFcγRIIA (human, UniProt P12318 34-317).
T4 construct: whole, on cells; also called FcγRIIA同种型
T4 sequence (looked up): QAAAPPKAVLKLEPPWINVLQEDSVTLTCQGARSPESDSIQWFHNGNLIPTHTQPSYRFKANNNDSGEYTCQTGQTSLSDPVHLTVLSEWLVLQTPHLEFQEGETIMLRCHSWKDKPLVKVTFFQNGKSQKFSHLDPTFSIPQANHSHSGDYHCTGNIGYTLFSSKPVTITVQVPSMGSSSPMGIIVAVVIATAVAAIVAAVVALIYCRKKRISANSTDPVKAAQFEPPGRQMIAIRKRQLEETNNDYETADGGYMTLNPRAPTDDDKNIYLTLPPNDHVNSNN
Kind of assay: FACS on human peripheral blood leukocytes.

In assay [6] the target is T5, THP1单核细胞株上的CD32A (H131形式) (human, UniProt P12318 34-317).
T5 construct: whole, on cells; also called THP-I
T5 sequence (looked up): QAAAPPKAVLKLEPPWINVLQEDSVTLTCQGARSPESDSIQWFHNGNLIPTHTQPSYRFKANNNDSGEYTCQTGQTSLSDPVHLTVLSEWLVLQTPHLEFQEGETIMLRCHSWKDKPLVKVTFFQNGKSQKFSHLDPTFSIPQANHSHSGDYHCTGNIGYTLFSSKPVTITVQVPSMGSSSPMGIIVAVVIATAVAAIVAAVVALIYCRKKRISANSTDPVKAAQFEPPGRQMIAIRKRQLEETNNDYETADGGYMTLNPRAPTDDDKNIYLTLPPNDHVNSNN
The assay is described as follows: FACS on THP-1 cells.

As for 聚集的生物素化人IgG (ligand), the percent of cells labelled with 细胞表面的人FcγRIIB (CD32B) [1] is 60 %.

With 嵌合的抗CD32B抗体ch2B6 (antibody), the ADCC with 细胞表面的人FcγRIIB (CD32B) [2] is more than 10 ng/mL.

B1: 由克隆2B6产生的小鼠单克隆抗体 (ATCC PTA-4591) (antibody)
heavy: QVQLQQPVTELVRPGASVMLSCKASDYPFTNYWIHWVKQRPGQGLEWIGVIDPSDTYPNYNKKFKGKATLTVVVSSSTAYMQLSSLTSDDSAVYYCARNGDSDYYSGMDYWGQGTSVTVSS
light: DILLTQSPAILSVSPGERVSFSCRTSQSIGTNIHWYQQRTNGFPRLLIKNVSESISGIPSRFSGSGSGTDFILSINSVESEDIADYYCQQSNTWPFTFGGGTKLEIK
notes: The entries may hold only the variable regions; also called 2B6抗体; m2B6
In the case of B1, the binding result is “no binding (tested: 100nM可溶性受体)” with 可溶性单体形式的人CD32A-R131; “binds” in assay [3]; “binds” with 细胞表面的人FcγRIIB (CD32B) [5]; “no binding” with 人外周血白细胞上的huFcγRIIA; “no binding” in assay [6]. The fold binding against the commercial antibodies AT10, FL18.26 and IV.3 in assay [4] was < 4.5 倍.
